Assay results reported in PMC8510540.

Key:
[1] = biological target: HIV-1_(YU-2) gp140 trimer; assay: BLI (equilibrium KD)
[2] = biological target: HIV-1_(YU-2) gp140 trimer; assay: BLI (kinetic KD, value in parentheses)
[3] = biological target: soluble human FcγRIIA, biotinylated, tetramerized with streptavidin-PE (UniProt P12318); assay: multiplex assay: antigen-conjugated beads stained with tetramerized receptor; conditions: highest antibody concentration point, log10 Ab (nM) about 1.6 (estimated); parent: est. 4.1; read off a plot
[4] = biological target: soluble human FcγRIIIB, biotinylated, tetramerized with streptavidin-PE (UniProt O75015); assay: as above; conditions: highest antibody concentration point, log10 Ab (nM) about 1.6 (estimated); parent: est. 3.3; read off a plot
[5] = biological target: soluble human FcγRIIB, biotinylated, tetramerized with streptavidin-PE (UniProt P31994); assay: as above; conditions: highest antibody concentration point, log10 Ab (nM) about 1.6 (estimated); parent: est. 3.4; read off a plot
[6] = biological target: soluble human FcγRIIIA, biotinylated, tetramerized with streptavidin-PE (UniProt P08637); assay: as above; conditions: highest antibody concentration point, log10 Ab (nM) about 1.6 (estimated); parent: est. 4.3; read off a plot
Sequence of soluble human FcγRIIIA, biotinylated, tetramerized with streptavidin-PE (P08637 17-208): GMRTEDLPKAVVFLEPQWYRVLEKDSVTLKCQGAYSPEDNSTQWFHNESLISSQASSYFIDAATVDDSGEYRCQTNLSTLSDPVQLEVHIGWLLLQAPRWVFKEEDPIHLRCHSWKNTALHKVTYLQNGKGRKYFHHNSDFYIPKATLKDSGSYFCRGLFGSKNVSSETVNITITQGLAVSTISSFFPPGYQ

Sequence of soluble human FcγRIIIB, biotinylated, tetramerized with streptavidin-PE (O75015 17-200): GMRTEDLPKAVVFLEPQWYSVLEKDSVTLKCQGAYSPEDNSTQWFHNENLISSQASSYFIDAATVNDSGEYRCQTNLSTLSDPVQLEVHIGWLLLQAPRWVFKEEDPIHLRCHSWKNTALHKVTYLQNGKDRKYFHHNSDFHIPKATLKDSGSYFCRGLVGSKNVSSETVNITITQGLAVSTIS
Sequence of soluble human FcγRIIA, biotinylated, tetramerized with streptavidin-PE (P12318 34-217): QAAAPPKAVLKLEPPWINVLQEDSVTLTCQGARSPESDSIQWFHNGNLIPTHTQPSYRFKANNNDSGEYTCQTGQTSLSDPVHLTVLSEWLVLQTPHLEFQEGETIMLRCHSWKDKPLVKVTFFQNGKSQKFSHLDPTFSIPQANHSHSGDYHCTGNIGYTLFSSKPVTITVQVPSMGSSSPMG
Sequence of soluble human FcγRIIB, biotinylated, tetramerized with streptavidin-PE (P31994 43-217): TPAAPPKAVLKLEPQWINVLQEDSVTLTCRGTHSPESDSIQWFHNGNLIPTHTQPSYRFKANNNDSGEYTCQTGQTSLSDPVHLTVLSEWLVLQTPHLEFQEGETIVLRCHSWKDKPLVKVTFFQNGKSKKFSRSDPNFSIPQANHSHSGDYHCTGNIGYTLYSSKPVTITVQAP

Substance | Kd [1] [nM] | Kd [2] [nM] | response [3] [log10 MFI] | response [4] [log10 MFI] | response [5] [log10 MFI] | response [6] [log10 MFI]
IgG1 b12 (unmodified Fc) (from UniProt P01857) E430G | 0.9 | 2.26 | 4 | 3.1 | – | –
IgG1 b12 (unmodified Fc) (from UniProt P01857) G236A; S267E; H268F; S324T; I332E | 1.93 | 2.78 | 4.3 | 3.2 | 4.3 | –
IgG1 b12 (unmodified Fc) (from UniProt P01857) K322A | 2.95 | 2.56 | – | – | – | –
IgG1 b12 (unmodified Fc) (from UniProt P01857) L234A; L235A | 2.04 | 2.06 | 2 | 2 | 2 | 3.4
